Tested on: MS2 coat protein
Test: apparent KD of MS2 coat protein; designed switch direction (-1 OFF switch, 1 ON switch): -1; higher = weaker reporter binding
Method in brief: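 Transcription of designed RNA switches on Illumina chips was done by stalled E. coli RNA polymerase. SNAP-549-labelled MS2 coat protein was then titrated in doubling steps from 0.7 or 1.5 nM to 3 µM, with steps of 0.8–1.5 h at the lowest and 10–20 min at the highest concentration. The per-design median over clusters of curve-fitted normalised fluorescence is reported as apparent KD.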

[1] = Eterna round: R95, input ligand: FMN 200 uM
[2] = Eterna round: R95, input ligand: microRNA oligo, concentration not stated
[3] = Eterna round: R95, input ligand: none
[4] = input ligand: microRNA oligo, concentration not stated

Sequence	apparent KD of MS2 coat protein (input ligand: FMN 200 uM)	apparent KD of MS2 coat protein (input ligand: none)	apparent KD of MS2 coat protein [1]	apparent KD of MS2 coat protein [2]	apparent KD of MS2 coat protein [3]	apparent KD of MS2 coat protein [4]
GAUCAUGCAGGAUAUACAUGGAACAUGAAAACAUGAAUUUCACAUGAGGAUCACCCAUGUAGAAGGGCAUGAUC [Omei Ex2 A12] (Eterna round: R97, puzzle: Exclusion 2)	54.2 nM	579 nM				
AUUAAGCAGCAGGAUAUAAGUAUCUGAUGGUGGUUAGAAGGGCUGACAUGAGGAUCACCCAUGUGCUCUUCGUG [Tieruseres] (puzzle: Exclusion 6)			16.1 nM	10.1 nM	14.1 nM	
AUUUUAACAUAGGAUAUCGAAUUUAUCAUUUAACGAGAAGGAUGAACAUGAGGAUCACCCAUGUGGUAUCAUGG [JL-ex6-3.01] (puzzle: Exclusion 6)			160 nM	265 nM	105 nM	
UAUACACAUGAGGAUCACCCAUGUGAGGAUAUGUUAAUUUUAAUGAAAAUUAAAAUUAACAGAAGGCACAUAUA [JR_Exclusion1_Sub025] (puzzle: Exclusion 1)				67.2 nM		
GAAAACUCAGGAUAUGCGUGAGAAAACUUGAGGAUCACCCAAGUGUGGUCCCGAUCUAAAGCAGAAGGGAGCAAAA [Lebidiraus] (Eterna round: R97, puzzle: Exclusion 5)	1770 nM	353 nM				
CUAGUGUAAGGAUAUGCCUGGCCGUGAGGCCAGAUUGAAUAGCAGAAGGUACAUGAGGAUCACCCAUGUACGGG [jl-ex4-4.62 ViennaUCT mod] (Eterna round: R97, puzzle: Exclusion 4)	279 nM	26.4 nM				
CAUACUCAAGUCAGGAUAUAGAGUCGGAUACGGAUCUAGAAGGGACAUGAGGAUCACCCAUGUAGAGAGUAAAG [EX-4 Malc #25] (puzzle: Brourd's mod of Exclusion 4)			88 nM	38 nM	21.1 nM	
GCAUGCUGAGUUAGGAUAUGCUAGCGUUGCCGCUAGCAGAAGGAACAUGAGGAUCACCCAUGUUAGCAUGCAGU [eternacac ex4r4 #2] (Eterna round: R97, puzzle: Brourd's mod of Exclusion 4)	16 nM	14 nM				
UAACAAAACUGAGGAUAUCCAUAGCAAAACGUUUGAUCCUCUACAUGAGGAUCACCCAUGUAGCAGGAGAAGGCAGAAACAAAG [Orraenso] (Eterna round: R96, puzzle: Exclusion NG 2)	28.3 nM	21.6 nM				90.1 nM
AAACUCUAAGUCAGGAUAUGGCAACGCUAAGGCGACCAGAAGGGACUUGAGGAUCACCCAAGUACCGCUUGUGG [Orardi] (Eterna round: R97, puzzle: Brourd's mod of Exclusion 4)	409 nM	42.7 nM				
GAUCGACAUGAGGAUCACCCAUGUCAGGAUAUCUACAUUGAAGCUGCGGCUUCAAUGUAGAGAAGGGAUAUAAU [E1/16-B1] (Eterna round: R97, puzzle: Exclusion 1)	36.9 nM	27.2 nM				
CUUAGUUGGUAAGGAUAUCCUACAUUAUUCUGACCCGUGCAAGCUACAUGAGGAUCACCCAUGUGGGAGAAGGUGCGUUAACGU [Design 7] (Eterna round: R96, puzzle: Exclusion NG 2)	53.5 nM	46 nM				42.1 nM
CGGCAAAGGAAGGAUAUGCUAGACGAUAGUCUAGCAGAAGGUCCUACAUGAGGAUCACCCAUGUGUCCUAGCCG [Mat - Exclusion 6 - Eli Mod - D9] (Eterna round: R97, puzzle: Exclusion 6)	49.6 nM	44.3 nM				
GGAGGAGAGUUAGGAUAUACAAGAAGAAUGUGAGUAGAAGGAACGGAACAUGAGGAUCACCCAUGUCCCAUGUGGAGGAGGAGG [Kawasakiqro] (Eterna round: R96, puzzle: Exclusion NG 1)	46.2 nM	30.9 nM				25.3 nM
AAUAACAUGUUGAUCAAAUACAUGAGGAUCACCCAUGUAUGCUUUUUGCUCGAUAAGAUCAACUAAUAAUAAUAAUA [StovNew/1-A] (Eterna round: R97, puzzle: Sensor, turn-off variant 1)	14 nM	15.6 nM				
UGAUCCCAUGUCAGGAUAUAGAGGCGGUAGCCUGGCUAGAAGGGACAUGAGGAUCACCCAUGUCGGUUCUUGCC (puzzle: Brourd's mod of Exclusion 4)				30.6 nM		
AACCUGAGGCUUUGCUUUAGGUUUACAUGAGGAUCACCCAUGUAGGAUAUGGUAGGCAUAGCUUACCAGAAGGACAUGAAAAUU [Mat - Exclusion NG 3 - Mod of JL - D29] (Eterna round: R96, puzzle: Exclusion NG 3)	293 nM	43.3 nM				34.1 nM

Sequence	apparent KD of MS2 coat protein (input ligand: FMN 200 uM)	apparent KD of MS2 coat protein (input ligand: none)	apparent KD of MS2 coat protein [1]	apparent KD of MS2 coat protein [2]	apparent KD of MS2 coat protein [3]	apparent KD of MS2 coat protein [4]
AGUUCCUUUGUGAGGAUAUCAAUGAUAUAACUGUAUGAGAAGGCACAUGAGGAUCACCCAUGUUUGUUGCUGCA [Eternabot (L1) Solution 78] (Eterna round: R97, puzzle: Brourd's mod of Exclusion 4)	106 nM	20.1 nM				
CUAGCUUCGGCUAGUACAAGCUUUUUGCUCGUCUUAUUAACAUGAGGAUCACCCAUGUACAAGAGACCUCAUGUAUU [Sensor v3 - turn-off variant 2 - 10] (puzzle: Sensor v3, turn-off variant 2)			188 nM	14.6 nM	249 nM	
ACAUGAGGAUCACCCAUGUCCGGCUGGUCCGUCUCGGCUGUCGAGGAUAUAGCUCGGUAUCCGCGCUAGAAGGCGGGAGCCGGA [Aenatbe mod 84] (Eterna round: R96, puzzle: Exclusion NG 3)	45.3 nM	44.4 nM				29.1 nM
CUUUUGUGAGGAUAUCAGUAGUAAUAUAAUAGUAUUACUACUGAGAAGGCACAUGAGGAUCACCCAUGUUCCUC [Ex4 344 Omei mod 8] (puzzle: Exclusion 4)				27.9 nM		
GUGUACGAAGGAUAUACAUGAGGAUCACCCAUGUGAAUAAGAUAGAAUAAGAUAAAGUGUAGAAGGUCGAGUGU [Excluse me!!! 7 - Jieux - Exclusion 3] (puzzle: Exclusion 3)				27.1 nM		
UUCAGACAUGAGGAUCACCCAUGUGAGGAUAUGAUGCAGCAGUGGUCUACGCUGUGCAUCAGAAGGCACAUGUG (puzzle: Exclusion 1)				99.6 nM		
UUGUUGUAUGUAGGAUAUGCAUGUUAUUAUUAUGCAGAAGGACAUGAGGAUCACCCAUGUGUAUUAUUAUUAUAUAUUAUAUAU [Title] (Eterna round: R96, puzzle: Exclusion NG 1)						15.4 nM
UACCUGAGGCAAAGCUUUAGGUAAACAUGAGGAUCACCCAUGUAGGAUAUGGUAGGCAAAGCUUACCAGAAGGACAUGUUAAUU [Mat - Exclusion NG 3 - Mod of JL - D34] (Eterna round: R96, puzzle: Exclusion NG 3)	341 nM	83 nM				79.5 nM
GUCUCGUCAGGAUAUGACGCUACAUUUUCUUUUUAGAAGAGUCAGAAGGGACAUGAGGAUCACCCAUGUGAUUC [Ex4 - 3 - 3] (puzzle: Exclusion 4)				310 nM		
UCAACCAGAGGAUAUGCGCAUAGAUCAGACUUUGUUUCUGAACAUGAGGAUCACCCAUGUAGAAGGCUGUAACC [Ex2 #78] (Eterna round: R97, puzzle: Exclusion 2)	28.5 nM	27.1 nM				
AUGAGACAUGAGGAUCACCCAUGUGAGGAUAUGUAUGGAUGGAGGAAAGAAUGAGAGAACAGAAGGCACGGAGG [JR_Exclu1_Sub065] (puzzle: Exclusion 1)			70.7 nM	72.7 nM	112 nM	
CAAGCUUUGCGAGGAUAUGAUGGCCUAUAUGCCUCAGAAGGCGCAGAAACUUGAGGAUCACCCAAGUGAUGCAAAUACGAAAAU [Mutated MS2 EX1.9] (Eterna round: R96, puzzle: Exclusion NG 1)	78.1 nM	21.8 nM				17.3 nM
ACAUGUCUUGUAGGAUAUAGUUGACAUGAGGAUCACCCAUGUUGAUUCAUGUCUAUCGAAAGGGACUAGAAGGACGAGAAUAUG [Ex NG2 #16] (Eterna round: R96, puzzle: Exclusion NG 2)	87.5 nM	32.2 nM				20 nM
UAUGGUUAAGUCAGGAUAUGCUCGUAGUGGUCUAUGCAGAAGGGACAUGAGGAUCACCCAUGUAUGGUCGUGUU [Ex4 #68] (Eterna round: R97, puzzle: Brourd's mod of Exclusion 4)	119 nM	106 nM				
ACAUGAGGAUCACCCAUGUCGAGUACAUGAGGAUCACCCAUGUAGGAUAUGGUUCGCUUUGCGUGCUAGAAGGAUAUAUGUUGA [salish99_ExNG3_r04_511] (Eterna round: R96, puzzle: Exclusion NG 3)	780 nM	457 nM				297 nM
UUCUCGUCAGGAUAUUUGUUGUUGUUGGAAACGGCGGCGGCGGAGAAGGGACAUGAGGAUCACCCAUGUCUGGU [-27.7, -24.8 kcal, 20% A] (Eterna round: R97, puzzle: Exclusion 4)	28.5 nM	21.2 nM				
ACAUGUCAUCGAGGAUAUUGGACACAUGAGGAUCACCCAUGUACUCGGAGGCUCUACUAUGAGUUCGAGAAGGCGAUGUACAUG [Ex NG2 #75] (Eterna round: R96, puzzle: Exclusion NG 2)	355 nM	49.9 nM				45.4 nM
